17 molecules from US20170160285A1 (VIB VZW, published 2017) can be followed below.

The target of assay [1] is T1, Recombinant Gαi1 (heterotrimeric G protein alpha subunit i1) (rat, UniProt P10824 1-354).
T1 construct: In the FACS screening it was labelled at random on amines with DYLIGHT-488 NHS ester; The sentence reads 'Recombinant rat RIC8A (uniprot:Q80ZG1) and Gαi1 (uniprot:P10824)'
Briefly: FACS on single yeast clone displaying the Nb; Gαi1-DYLIGHT-488.

In assay [2] the target is T2, Recombinant rat RIC8A (resistance to inhibitors of cholinesterase 8A) (rat, UniProt Q80ZG1 1-491, limits assumed).
T2 construct: In the FACS screening it was labelled at random on amines with DYLIGHT-405 NHS ester
T2 sequence (looked up): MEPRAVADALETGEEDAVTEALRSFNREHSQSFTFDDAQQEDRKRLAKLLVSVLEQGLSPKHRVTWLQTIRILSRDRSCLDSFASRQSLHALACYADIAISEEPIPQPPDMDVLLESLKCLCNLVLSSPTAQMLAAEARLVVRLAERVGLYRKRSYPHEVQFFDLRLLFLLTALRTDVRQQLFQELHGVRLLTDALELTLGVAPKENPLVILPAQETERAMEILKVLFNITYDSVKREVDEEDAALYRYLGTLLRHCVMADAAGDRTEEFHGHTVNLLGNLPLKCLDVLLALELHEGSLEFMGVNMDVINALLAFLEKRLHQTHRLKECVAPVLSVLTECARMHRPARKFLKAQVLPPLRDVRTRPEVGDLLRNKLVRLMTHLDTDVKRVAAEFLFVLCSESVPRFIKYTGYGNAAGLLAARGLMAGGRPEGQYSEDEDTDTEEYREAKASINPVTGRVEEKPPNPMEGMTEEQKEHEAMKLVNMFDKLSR
Put plainly: FACS on single yeast clone displaying the Nb; RIC8A-DYLIGHT-405.

Assay [3] deals with T1, Recombinant Gαi1 (heterotrimeric G …). Put plainly: FACS of yeast cells displaying the Nb, stained with 1 µM Gαi1(GDP)-DYLIGHT-488; black = clone (CA8322 per legend), grey = irrelevant Nb.
For assay [4], the target named is T2, Recombinant rat RIC8A (resistance to …). Put plainly: FACS of yeast cells displaying the Nb, stained with 1 µM RIC8A-DYLIGHT-405; black = clone (CA8316 per legend), grey = irrelevant Nb.
The target of assay [5] is T1, Recombinant Gαi1 (heterotrimeric G …). Briefly: FACS of yeast cells displaying the Nb, stained with 1 µM Gαi1(GDP)-DYLIGHT-488; black = clone (CA8316 per legend), grey = irrelevant Nb.

T1 sequence (P10824 whole entry, one chain of several): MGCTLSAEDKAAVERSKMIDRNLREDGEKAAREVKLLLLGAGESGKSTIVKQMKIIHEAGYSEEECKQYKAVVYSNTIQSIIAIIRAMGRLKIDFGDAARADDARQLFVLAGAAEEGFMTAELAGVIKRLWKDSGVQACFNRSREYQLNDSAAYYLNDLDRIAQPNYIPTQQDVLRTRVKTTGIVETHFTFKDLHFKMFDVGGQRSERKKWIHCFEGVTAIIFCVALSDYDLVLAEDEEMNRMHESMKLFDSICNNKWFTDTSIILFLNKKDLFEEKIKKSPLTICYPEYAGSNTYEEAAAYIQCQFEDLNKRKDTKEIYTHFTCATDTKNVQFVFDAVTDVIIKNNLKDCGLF

B1: NANOBODY CA8318 (VHH)
VHH: QVQLVESGGGRVQAGDSLRLSCAASGRTFSPYAMGWFRQAPGKEREFVATINWSGDYTYYTDSVKGRFTTSRDNAKNTLYLEMNSLNAEDTAVYYCVARVGSPSSSDRAYQYWGQGTQVTVSS
notes: Family 8; also called CA8334 (pMESy4, E. coli)
Take B1: the binding result in assay [1] and in assay [2] was “no binding (tested: 1 µM)” in each case.

B2: NANOBODY CA8411 (VHH)
VHH: QVQLVESGGGLVQAGGSLRLSCAASARTFSRYGAGWFRQAPGKEREFVGAITWGGGRTKYADSVKGRFTISRDNSKNTVYLQMNSLKSEDTAVYYCASSSIEFGPLEDTYDYWGQGTQVTVSS
notes: Family 3
On to B2, for which, in assay [1], the binding result is “no binding (tested: 1 µM)”.

B3: NANOBODY CA8406 (VHH)
VHH: QVQLVESGGGLVQPGGSLRLSCAASTNIFNLRSMGWYRQAPGKERELVATITTYNTNYADSVKGRFTISRDNAKKTMYLQMNSLRPEDTAVYYCNLQNRYDAMDYWGKGTQVTVSS
notes: Family 11
As to B3, in assay [1], the binding result was “no binding (tested: 1 µM)”.

B4: NANOBODY CA8418 (VHH)
VHH: QVQLVESGGGLVQAGGSLRLSCAASGRTFSNYAMGWFRQAPGKEREFVAALTWSGGNTVYRDSVKGRFIITRDNAKNAVYLQMNSLKPEDTAVYYCASDRRPYRYNIGTAEGEYNYWGQGTQVTVSS
notes: Family 23
B4: in assay [1], the binding result is given as “no binding (tested: 1 µM)”.

B5: NANOBODY CA8322 (VHH)
VHH: QVQLVESEGGLVQPGGSLRLSCAASGFTFKYYYMNWVRQAPGKGLEWVSRINQLGGTSYGDSVKGRFTISRDNAKNTLYLQMNSLVPEDTAVYYCARCPAGAACKVEYDYRGQGTQVTVSS
notes: Family 16; also called CA8338 (pMESy4, E. coli)
Turning to B5, the binding result in assay [3] was “no binding (tested: 1 µM)”.

B6: NANOBODY CA8421 (VHH)
VHH: QVQLVESGGGLVQAGGSLRLSCAASGRTFSNYAMGWFRQAPGKEREFVAHITWTGGITYYSDSVKGRFIISRDNAKNTVNLQMNSLKAEDTAVYYCAADRVPYRFGVPSINEYDYWGQGTQVTVSS
notes: Family 26
As for B6, the binding result in assay [1] was “no binding (tested: 1 µM)”.

B7: NANOBODY CA8312 (VHH)
VHH: QVQLVESGGGLVQAGGSKRLSCAASGRPFSNSAMGWFRQAPGKEREFVAAISWSGGNTYYADSVKGRFTISRDNAKNAVYLRMNSLEPEDTAVYYCAGDRQPYVYDLPTAQYQYDYWGQGTQVTVSS
notes: Family 1; also called CA8328 (pMESy4, E. coli)
In the case of B7, the binding result in assay [1] and in assay [2] was “no binding (tested: 1 µM)” in each case.

B8: NANOBODY CA8419 (VHH)
VHH: QVQLVESGGGLVQPGGSLRLSCAASGFTFSRFVMNWARQAPGKGLEWVSTINSDGDVTSYADSVKGRFTISRDNAKNTLYLQMNSLKPEDTAVYYCGKGWFLNRRDESRGQGTQVTVSS
notes: Family 24
For B8, the binding result in assay [1] is on record as “no binding (tested: 1 µM)”.

B9: NANOBODY CA8314 (VHH)
VHH: QVQLVESGGGLVQAGDSLRLSCTASERAFSRYAMGWFRQAPGKERELVAAVSWAGGTTYYGDSVKGRFTISRDNAKITVYLQMNSLKPEDTAVYYCAAEAREFSVGSYYATEYDYWGQGTQVTVSS
notes: Family 4; also called CA8330 (pMESy4, E. coli)
For the molecule B9, the binding result in assay [1] and in assay [2] was “no binding (tested: 1 µM)” throughout.

B10: NANOBODY CA8424 (VHH)
VHH: QVQLVESGGDLVQAGGSLRLSCAASGGIFIINNMGWYRQTPGNQRELVAEITRAGNSNYADSVKGRFTISRDNAKNTVYLQMNRLKPEDTAVYYCNFNVRYYGEYWGQGTQVTVSS
notes: Family 29; also called CA8444 (pMESy4, E. coli)
On to B10, for which the binding result in assay [1] is given as “no binding (tested: 1 µM)”.

B11: NANOBODY CA8402 (VHH)
VHH: QVQLVESGGGLVQAGGSLRLSCAASGRTFSNYAMGWFRQAPGKEREFVAAISWSGGKTLYAESVKGRFTISRDNAKNTVYLQMNSLKPEDTAVYYCAATPADLTVVAGPPRIEMWYWGQGTQVTVSS
notes: Family 19; also called CA8431 (pMESy4, E. coli)
B11: the binding result in assay [1] and in assay [2] was “no binding (tested: 1 µM)” in each case.

B12: NANOBODY CA8316 (VHH)
VHH: QLQLVESGGGLVQAGGSLRLSCAASGDTFSRYVMGWFRQAPGKERTFVVGISGGGGITRYADSVKGRFTISRDNAENTLYLEMNTLNPEDTAVYYCAATPADSAFMRNLRVYDYWGQGTQVTVSS
notes: Family 7; The same nanobody subcloned in pMESy4 and purified from E. coli is CA8332
Consider B12, for which the binding result in assay [4] and in assay [5] was “no binding (tested: 1 µM)” each time.

B13: NANOBODY CA8408 (VHH)
VHH: QVQLVESGGGLVQAGDSLRLSCAASGLIVSNYAMGWFRQAPGKEREFVAYINWNGGVTYYTNSVKGRFTISRDNAKNTVYLQMNSLKPEDTAVYYCARTSRASVTTRVADFGYWGQGTQVTVSS
notes: Family 6; also called CA8109 (pMESy4, E. coli)
On to B13, for which the binding result in assay [1] is recorded as “no binding (tested: 1 µM)”.

B14: NANOBODY CA8319 (VHH)
VHH: QVQLVESGGGLVQAGGSLRLSCEASGRTSSSYVMGWFRRVSGKEREFVAAINPTGSSTYYADSVKGRFTISRDNSKNTVYVQMNGLKPEDTAVYYCAATRRDFYIIRNSRPQFDYWGQGTQVTVSS
notes: Family 10
On to B14, for which the binding result in assay [1] and in assay [2] was “no binding (tested: 1 µM)” each time.

B15: NANOBODY CA8403 (VHH)
VHH: QVQLVESGGGLVQAGGSLRLSCAASTRTFSNYVMGWFRQAPGKEREFVSAITSSGRGTSYADSVKGRFTISRDNAKNTVFLQMNSLKPEDTAVYYCAATAADYVLRSRPSVYSYWGQGTQVTVSS
notes: Family 20; also called CA8432 (pMESy4, E. coli)
Regarding B15, the binding result in assay [1] and in assay [2] was “no binding (tested: 1 µM)” each time.

B16: NANOBODY CA8315 (VHH)
VHH: QVQLVESGGGLVQAGGSLRLSCAASGRTFSNYAMGWFRQTPGKEREFVAAITWSGGATYYADSVKGRFIISRDNTKNTVYLQMNSLKPEDTAVYYCAADRKPYSYYPSDFGSWGQGTQVTVSS
notes: Family 5; also called CA8331 (pMESy4, E. coli)
As to B16, the binding result in assay [1] and in assay [2] was “no binding (tested: 1 µM)” throughout.

B17: NANOBODY CA8405 (VHH)
VHH: QVQLVESGGGLVQDGGSLRLSCTASGRTFSNNAMGWFRQEPGREREFVAAIRWNGIANYADSVKGRFTISGDNAKNTVYLQMNSLKPDDTAVYYCAAAIRDGHNYYASDMRRYDYWGQGTQVTVSS
notes: Family 21; also called CA8433 (pMESy4, E. coli)
Regarding B17, the binding result in assay [1] and in assay [2] was “no binding (tested: 1 µM)” throughout.
